In series [1] the target is OxDC (Bacillus subtilis, UniProt O34714). Description: oxalate decarboxylase activity, Michaelis-Menten fit. The class given is biochemical. The following applies: pH 4.2; 140 mM NaCl; no o-phenylenediamine; potassium oxalate 0.1-250 mM.
Series [2] addresses T1, OxDC (Bacillus subtilis, UniProt O34714, S161D/E162S/N163S/S164N).
T1 construct: synthetic cDNA (GeneScript) in pET24a(+), thrombin site and C-terminal 6xHis; expressed in E. coli; two-step purification, untagged enzyme used; homohexamer 264 kDa, Mn-dependent
The experiment in a line: turbidity at […] nm, protection from aggregation. In kind it is binding. To be noted: 50 mM sodium glyoxylate; 16 mM Tris-HCl pH 7.2, 140 mM NaCl, 25 C; substrate analogue, active site (indirect evidence).

Substrate in the series “purified protein”: O=C(O)C(=O)O
The experiment in a line: purified protein. To be noted: pH 4.2, 140 mM NaCl, potassium oxalate 10-200 mM.

Series [3] deals with the molecule itself. Description: dynamic light scattering; 0.5 mg/mL enzyme, 25°C, 52 mM sodium acetate pH 4.2, 140 mM NaCl; self-association (hexamer).

Consider four molecules from publication PMC6850040 (Iubmb Life, 2019).

One may read the Km as the concentration of substrate that gives half-maximal velocity. Consider `O=C(O)C(=O)O` [oxalate], for which, at OxDC [1], the Km was determined as 8 ± 0.8 mM.
For the molecule `O=CC(=O)O` [sodium glyoxylate], the “turbidity at 600 nm, protection from aggregation” value on OxDC [2] is given as “We found that NaGlyox prevents aggregation”.

B1: OxDC‐DSSN (OxDC bearing the Ser161Asp, Glu162Ser, Asn163Ser, Ser164Asn mutations) (enzyme, Bacillus subtilis)
chain: MKKQNDIPQPIRGDKGATVKIPRNIERDRQNPDMLVPPETDHGTVSNMKFSFSDTHNRLEKGGYAREVTVRELPISENLASVNMRLKPGAIRELHWHKEAEWAYMIYGSARVTIVDEKGRSFIDDVGEGDLWYFPSGLPHSIQALEEGAEFLLVFDDGSFDSSNTFQLTDWLAHTPKEVIAANFGVTKEEISNLPGKEKYIFENQLPGSLKDDIVEGPNGEVPYPFTYRLLEQEPIESEGGKVYIADSTNFKVSKTIASALVTVEPGAMRELHWHPNTHEWQYYISGKARMTVFASDGHARTFNYQAGDVGYVPFAMGHYVENIGDEPLVFLEIFKDDHYADVSLNQWLAMLPETFVQAHLDLGKDFTDVLSKEKHPVVKKKCSK
notes: Oxalate decarboxylase (OxDC) of Bacillus subtilis with four substitutions in the lid; made by site-directed mutagenesis of pET24a-OxDC (thrombin cleavage site and 6xHis tag at the C-terminus); The PDB entries are of the wild-type parent; source: two-step purification giving untagged protein; not shown: His6, C-terminal, cleaved
A word on the Vmax: it is the rate approached at saturating substrate. The kcat is the number of substrate molecules converted per active site and unit of time at saturation. In general, stoichiometry N refers to the number of molecules, sites or subunits per partner or assembly. As for B1, in “purified protein”, the Km is listed as 0.30 ± 0.07 mM, the Vmax was 2 µmol/min/mg and the kcat stood at 1.4 s⁻¹. The “stoichiometry N” value in series [3] was found to be 6.

B2: Oxalate decarboxylase (OxDC) from Bacillus subtilis, wild type (enzyme)
chain: MKKQNDIPQPIRGDKGATVKIPRNIERDRQNPDMLVPPETDHGTVSNMKFSFSDTHNRLEKGGYAREVTVRELPISENLASVNMRLKPGAIRELHWHKEAEWAYMIYGSARVTIVDEKGRSFIDDVGEGDLWYFPSGLPHSIQALEEGAEFLLVFDDGSFSENSTFQLTDWLAHTPKEVIAANFGVTKEEISNLPGKEKYIFENQLPGSLKDDIVEGPNGEVPYPFTYRLLEQEPIESEGGKVYIADSTNFKVSKTIASALVTVEPGAMRELHWHPNTHEWQYYISGKARMTVFASDGHARTFNYQAGDVGYVPFAMGHYVENIGDEPLVFLEIFKDDHYADVSLNQWLAMLPETFVQAHLDLGKDFTDVLSKEKHPVVKKKCSK
notes: Oxalate decarboxylase (OxDC) of Bacillus subtilis; cDNA with a thrombin cleavage site and a 6xHis tag at the C-terminus in pET24a(+); homohexamer of 264 kDa; Residues of the thrombin site may remain at the C-terminus after cleavage; Purification details are in the Supporting Information; also called wild‐type OxDC; source: two-step purification giving untagged protein; not shown: His6, …
Regarding B2, the “stoichiometry N” value in series [3] was found to be 6.
